In article PMC9794699:

What was measured:
[1] = target: low-density lipoprotein receptor-related protein 1 (LRP1), endogenous in WI38 lung fibroblasts (human (endogenous in WI38)) (UniProt Q07954)
[2] = target: low-density lipoprotein receptor-related protein 1 (LRP1), endogenous in WI38 lung fibroblasts (human (endogenous in WI38)) (UniProt Q07954); remark: listed apart in the source

Sequence of UniProt Q07954 (Q07954 20-4544): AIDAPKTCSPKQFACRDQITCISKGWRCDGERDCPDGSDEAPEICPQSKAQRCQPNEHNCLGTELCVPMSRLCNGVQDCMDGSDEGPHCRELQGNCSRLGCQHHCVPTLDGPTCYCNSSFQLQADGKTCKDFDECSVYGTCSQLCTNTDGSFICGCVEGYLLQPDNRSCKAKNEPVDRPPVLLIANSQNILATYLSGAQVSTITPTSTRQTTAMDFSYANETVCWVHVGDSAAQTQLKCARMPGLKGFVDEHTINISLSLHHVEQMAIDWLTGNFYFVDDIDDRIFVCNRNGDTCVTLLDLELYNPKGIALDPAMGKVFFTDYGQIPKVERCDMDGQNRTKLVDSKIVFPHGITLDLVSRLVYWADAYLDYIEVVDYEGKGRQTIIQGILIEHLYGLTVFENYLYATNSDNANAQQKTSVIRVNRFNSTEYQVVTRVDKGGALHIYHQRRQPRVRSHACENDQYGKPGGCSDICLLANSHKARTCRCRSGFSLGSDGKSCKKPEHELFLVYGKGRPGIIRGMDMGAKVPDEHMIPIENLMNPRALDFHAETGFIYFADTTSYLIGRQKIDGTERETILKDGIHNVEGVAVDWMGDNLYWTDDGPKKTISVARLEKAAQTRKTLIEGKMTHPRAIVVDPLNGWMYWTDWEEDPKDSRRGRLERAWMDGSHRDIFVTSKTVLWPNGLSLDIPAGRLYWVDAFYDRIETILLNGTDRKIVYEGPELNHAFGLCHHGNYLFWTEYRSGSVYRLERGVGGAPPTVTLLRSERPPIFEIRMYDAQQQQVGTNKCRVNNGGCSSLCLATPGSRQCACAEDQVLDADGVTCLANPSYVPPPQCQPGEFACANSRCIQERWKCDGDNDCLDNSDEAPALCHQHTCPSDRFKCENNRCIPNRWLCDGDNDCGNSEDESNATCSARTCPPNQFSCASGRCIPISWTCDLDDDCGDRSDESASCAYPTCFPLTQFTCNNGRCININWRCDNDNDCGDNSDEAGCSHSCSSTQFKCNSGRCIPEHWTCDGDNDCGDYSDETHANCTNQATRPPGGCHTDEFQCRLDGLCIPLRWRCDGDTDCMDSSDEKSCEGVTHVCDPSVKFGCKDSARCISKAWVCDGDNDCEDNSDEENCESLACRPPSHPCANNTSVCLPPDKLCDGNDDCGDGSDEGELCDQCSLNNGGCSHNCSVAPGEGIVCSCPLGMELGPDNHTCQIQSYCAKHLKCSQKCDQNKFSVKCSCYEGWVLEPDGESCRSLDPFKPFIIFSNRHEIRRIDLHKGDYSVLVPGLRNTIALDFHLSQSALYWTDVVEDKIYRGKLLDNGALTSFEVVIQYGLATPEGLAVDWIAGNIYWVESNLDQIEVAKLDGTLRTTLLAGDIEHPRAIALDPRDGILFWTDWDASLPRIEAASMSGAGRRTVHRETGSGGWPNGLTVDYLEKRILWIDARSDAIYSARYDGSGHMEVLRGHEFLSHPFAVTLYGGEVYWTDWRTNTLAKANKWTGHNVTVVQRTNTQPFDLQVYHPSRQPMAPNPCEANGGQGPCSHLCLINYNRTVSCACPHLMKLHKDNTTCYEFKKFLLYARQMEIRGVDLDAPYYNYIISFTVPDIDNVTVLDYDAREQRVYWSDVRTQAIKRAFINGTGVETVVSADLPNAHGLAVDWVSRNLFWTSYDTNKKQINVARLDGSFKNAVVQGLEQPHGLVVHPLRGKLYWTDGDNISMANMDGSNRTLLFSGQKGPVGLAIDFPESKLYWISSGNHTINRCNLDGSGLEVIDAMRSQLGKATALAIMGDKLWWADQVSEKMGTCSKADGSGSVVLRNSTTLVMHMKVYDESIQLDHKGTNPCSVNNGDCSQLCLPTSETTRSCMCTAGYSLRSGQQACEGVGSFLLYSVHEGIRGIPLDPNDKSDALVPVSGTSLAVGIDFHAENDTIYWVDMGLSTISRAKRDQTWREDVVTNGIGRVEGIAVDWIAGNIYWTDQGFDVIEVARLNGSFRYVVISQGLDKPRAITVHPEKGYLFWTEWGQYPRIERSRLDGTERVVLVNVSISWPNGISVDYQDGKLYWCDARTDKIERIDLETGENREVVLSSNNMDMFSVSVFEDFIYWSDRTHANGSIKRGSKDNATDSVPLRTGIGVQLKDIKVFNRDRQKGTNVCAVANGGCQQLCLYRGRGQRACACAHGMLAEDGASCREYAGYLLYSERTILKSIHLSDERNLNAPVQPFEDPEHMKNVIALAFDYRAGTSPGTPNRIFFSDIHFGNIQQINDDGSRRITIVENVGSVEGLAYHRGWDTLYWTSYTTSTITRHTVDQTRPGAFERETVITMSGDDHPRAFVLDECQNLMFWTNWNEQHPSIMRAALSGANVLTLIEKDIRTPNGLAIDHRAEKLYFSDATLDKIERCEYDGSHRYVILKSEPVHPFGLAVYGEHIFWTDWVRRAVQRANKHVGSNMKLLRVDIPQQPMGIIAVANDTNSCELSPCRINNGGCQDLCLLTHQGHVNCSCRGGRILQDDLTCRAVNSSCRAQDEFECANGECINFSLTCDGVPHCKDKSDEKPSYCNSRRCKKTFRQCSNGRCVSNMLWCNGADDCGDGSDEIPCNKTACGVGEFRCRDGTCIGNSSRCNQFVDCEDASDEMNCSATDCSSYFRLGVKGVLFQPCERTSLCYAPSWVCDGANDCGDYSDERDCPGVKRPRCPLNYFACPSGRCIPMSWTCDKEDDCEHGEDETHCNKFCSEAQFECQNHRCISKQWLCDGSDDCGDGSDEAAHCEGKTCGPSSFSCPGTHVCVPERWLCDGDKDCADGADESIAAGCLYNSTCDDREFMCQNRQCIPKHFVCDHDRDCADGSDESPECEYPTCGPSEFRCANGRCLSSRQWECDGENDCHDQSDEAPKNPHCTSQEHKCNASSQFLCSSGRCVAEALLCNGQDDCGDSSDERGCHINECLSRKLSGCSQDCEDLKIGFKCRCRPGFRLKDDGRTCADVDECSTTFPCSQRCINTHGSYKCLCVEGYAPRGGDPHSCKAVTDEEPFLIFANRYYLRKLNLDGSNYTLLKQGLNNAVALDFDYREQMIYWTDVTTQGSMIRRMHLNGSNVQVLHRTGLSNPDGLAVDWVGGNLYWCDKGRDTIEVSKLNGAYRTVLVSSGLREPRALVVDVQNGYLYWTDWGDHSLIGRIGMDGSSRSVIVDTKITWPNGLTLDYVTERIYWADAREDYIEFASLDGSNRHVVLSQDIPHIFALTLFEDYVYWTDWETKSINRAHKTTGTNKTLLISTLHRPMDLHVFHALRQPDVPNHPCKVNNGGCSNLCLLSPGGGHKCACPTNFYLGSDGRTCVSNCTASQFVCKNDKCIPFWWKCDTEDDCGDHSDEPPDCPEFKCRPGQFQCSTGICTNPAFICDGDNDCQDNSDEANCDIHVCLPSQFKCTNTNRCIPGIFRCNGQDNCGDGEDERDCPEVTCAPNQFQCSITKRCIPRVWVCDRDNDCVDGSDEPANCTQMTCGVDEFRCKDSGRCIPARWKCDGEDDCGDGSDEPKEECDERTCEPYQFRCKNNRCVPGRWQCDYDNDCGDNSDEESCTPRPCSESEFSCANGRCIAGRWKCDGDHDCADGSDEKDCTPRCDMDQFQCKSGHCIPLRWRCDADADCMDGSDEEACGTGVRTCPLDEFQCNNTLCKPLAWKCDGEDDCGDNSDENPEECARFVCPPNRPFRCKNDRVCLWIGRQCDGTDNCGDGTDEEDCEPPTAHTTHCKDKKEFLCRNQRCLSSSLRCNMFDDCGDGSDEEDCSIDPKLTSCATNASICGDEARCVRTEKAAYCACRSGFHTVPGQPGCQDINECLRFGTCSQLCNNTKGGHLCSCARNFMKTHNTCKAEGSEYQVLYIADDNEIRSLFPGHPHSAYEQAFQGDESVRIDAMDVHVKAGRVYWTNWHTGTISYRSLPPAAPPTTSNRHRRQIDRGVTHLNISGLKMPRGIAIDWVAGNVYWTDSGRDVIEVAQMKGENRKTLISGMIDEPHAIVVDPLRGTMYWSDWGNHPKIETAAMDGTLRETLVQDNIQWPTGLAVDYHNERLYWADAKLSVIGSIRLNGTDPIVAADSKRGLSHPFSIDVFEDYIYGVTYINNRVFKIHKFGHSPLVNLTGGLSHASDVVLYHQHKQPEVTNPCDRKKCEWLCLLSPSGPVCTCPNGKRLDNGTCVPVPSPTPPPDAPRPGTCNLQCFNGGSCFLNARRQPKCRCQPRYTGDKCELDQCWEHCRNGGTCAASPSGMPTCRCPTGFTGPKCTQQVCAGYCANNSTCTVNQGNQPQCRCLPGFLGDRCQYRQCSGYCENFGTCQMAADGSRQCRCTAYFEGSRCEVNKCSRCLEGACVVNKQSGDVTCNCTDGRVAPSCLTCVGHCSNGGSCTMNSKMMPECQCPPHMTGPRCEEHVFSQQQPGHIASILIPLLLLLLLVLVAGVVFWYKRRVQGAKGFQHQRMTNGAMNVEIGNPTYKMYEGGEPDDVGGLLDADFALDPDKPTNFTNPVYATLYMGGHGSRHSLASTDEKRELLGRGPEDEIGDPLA

Rac-GTPase activity (G-LISA) in WI38 cells treated with CM from 293T cells expressing PRSS2, compared to CM from empty vector-transfected cells [1]: 2 fold | Rho-GTPase activity (G-LISA) in WI38 cells treated with PRSS2 CM (fold decrease) [1]: 3.2 | repression of Tsp-1 protein (western blot) in mock-transfected WI38 fibroblasts treated with CM from 293T cells expressing PRSS2 [2]: 58%
Substance: PRSS2 (serine protease PRSS2, wild type), ectopically expressed in 293T cells (from UniProt P07478 16-247) (enzyme)
